Results as given in IntAct's records for PubMed 8840966.

B1: Cyclin-dependent kinase 4 inhibitor C (Homo sapiens), P42773 (parent)
chain: MAEPWGNELASAAARGDLEQLTSLLQNNVNVNAQNGFGRTALQVMKLGNPEIARRLLLRGANPDLKDRTGFAVIHDAARAGFLDTLQTLLEFQADVNIEDNEGNLPLHLAAKEGHLRVVEFLVKHTASNVGHRNHKGDTACDLARLYGRNEVVSLMQANGAGGATNLQ

Variants of: B1
Conditions: with cdk6_human CDK6, Q00534
cdk6_human CDK6, Q00534, sequence (Q00534 whole entry): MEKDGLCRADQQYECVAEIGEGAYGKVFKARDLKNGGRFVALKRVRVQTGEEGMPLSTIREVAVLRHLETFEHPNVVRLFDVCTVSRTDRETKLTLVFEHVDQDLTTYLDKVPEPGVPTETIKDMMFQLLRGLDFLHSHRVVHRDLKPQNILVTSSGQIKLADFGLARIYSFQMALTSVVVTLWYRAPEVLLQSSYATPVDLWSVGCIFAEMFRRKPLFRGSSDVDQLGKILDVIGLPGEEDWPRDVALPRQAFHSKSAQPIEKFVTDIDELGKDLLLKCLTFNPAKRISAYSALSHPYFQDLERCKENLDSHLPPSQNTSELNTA

Variant | effect of a mutation on the interaction
A72P | disrupting interaction
